Results from patent US20060026702A1 (DUKE UNIVERSITY, published 2006).

Biological target: T1, HA epitope-tagged PI3Kγ (pCMV-PI3 Kp110γ wild type) (Homo sapiens (Human), UniProt P48736 1-1102)
T1 construct: Full-length wild type with HA tag, expressed in transfected NIH-3T3 cells; also called HA-PI3Kγ
Assay: co-immunoprecipitation from cytosolic extracts of transfected NIH-3T3 cells

T1 sequence (P48736 other isoform, or with tags, fused parts or gaps limits assumed): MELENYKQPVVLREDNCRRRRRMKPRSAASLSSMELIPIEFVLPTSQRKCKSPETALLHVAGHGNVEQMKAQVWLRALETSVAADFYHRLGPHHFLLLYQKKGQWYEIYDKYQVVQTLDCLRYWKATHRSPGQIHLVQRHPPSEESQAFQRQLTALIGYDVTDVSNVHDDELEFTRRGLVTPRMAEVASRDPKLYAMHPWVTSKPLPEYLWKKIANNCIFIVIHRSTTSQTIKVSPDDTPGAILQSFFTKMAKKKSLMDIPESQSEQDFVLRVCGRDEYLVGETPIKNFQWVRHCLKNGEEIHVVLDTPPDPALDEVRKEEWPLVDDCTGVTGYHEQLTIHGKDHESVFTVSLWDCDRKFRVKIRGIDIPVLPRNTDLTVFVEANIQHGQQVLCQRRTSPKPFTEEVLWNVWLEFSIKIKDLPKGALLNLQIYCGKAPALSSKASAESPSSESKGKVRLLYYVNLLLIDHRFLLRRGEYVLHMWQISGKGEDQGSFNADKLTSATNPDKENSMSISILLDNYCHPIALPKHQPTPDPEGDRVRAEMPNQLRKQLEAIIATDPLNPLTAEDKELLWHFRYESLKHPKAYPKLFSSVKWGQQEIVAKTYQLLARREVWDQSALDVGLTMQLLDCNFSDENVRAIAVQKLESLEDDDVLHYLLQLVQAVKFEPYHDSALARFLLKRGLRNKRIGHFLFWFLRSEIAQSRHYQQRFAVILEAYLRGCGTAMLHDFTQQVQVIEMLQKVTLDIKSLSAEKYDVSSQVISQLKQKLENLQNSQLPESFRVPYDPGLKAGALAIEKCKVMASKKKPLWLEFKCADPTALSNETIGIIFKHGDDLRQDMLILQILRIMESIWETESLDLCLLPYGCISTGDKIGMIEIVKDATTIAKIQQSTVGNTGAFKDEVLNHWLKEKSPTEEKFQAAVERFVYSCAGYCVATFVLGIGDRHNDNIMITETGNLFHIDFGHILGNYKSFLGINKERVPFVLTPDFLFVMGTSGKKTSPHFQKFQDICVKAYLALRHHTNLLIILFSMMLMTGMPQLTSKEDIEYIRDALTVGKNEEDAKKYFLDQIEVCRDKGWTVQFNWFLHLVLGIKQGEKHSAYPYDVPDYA

binding result: binds
B1: β-adrenergic receptor kinase 1 (βARK1), bovine cDNA expressed in transfected cells (enzyme, UniProt P21146 1-689, looked up)
chain: MADLEAVLADVSYLMAMEKSKATPAARASKKILLPEPSIRSVMQKYLEDRGEVTFEKIFSQKLGYLLFRDFCLKHLEEAKPLVEFYEEIKKYEKLETEEERLVCSREIFDTYIMKELLACSHPFSKSAIEHVQGHLVKKQVPPDLFQPYIEEICQNLRGDVFQKFIESDKFTRFCQWKNVELNIHLTMNDFSVHRIIGRGGFGEVYGCRKADTGKMYAMKCLDKKRIKMKQGETLALNERIMLSLVSTGDCPFIVCMSYAFHTPDKLSFILDLMNGGDLHYHLSQHGVFSEADMRFYAAEIILGLEHMHNRFVVYRDLKPANILLDEHGHVRISDLGLACDFSKKKPHASVGTHGYMAPEVLQKGVAYDSSADWFSLGCMLFKLLRGHSPFRQHKTKDKHEIDRMTLTMAVELPDSFSPELRSLLEGLLQRDVNRRLGCLGRGAQEVKESPFFRSLDWQMVFLQKYPPPLIPPRGEVNAADAFDIGSFDEEDTKGIKLLDSDQELYRNFPLTISERWQQEVAETVFDTINAETDRLEARKKTKNKQLGHEEDYALGKDCIMHGYMSKMGNPFLTQWQRRYFYLFPNRLEWRGEGEAPQSLLTMEEIQSVEETQIKERKCLLLKIRGGKQFVLQCDSDPELVQWKKELRDAYREAQQLVQRVPKMKNKPRSPVVELSKVPLIQRGSANGL
notes: Over-expressed in NIH-3T3 or HEK 293 cells and immunoprecipitated with a βARK1 monoclonal antibody; also called GRK2; β3ARK1
